Laboratory results from patent US20040166099A1 (TOLERRX, published 2004).

Target: protein kinase C theta (human, UniProt Q04759 1-706)
Test: cell-based or functional assay

Sequence of protein kinase C theta (Q04759 whole entry): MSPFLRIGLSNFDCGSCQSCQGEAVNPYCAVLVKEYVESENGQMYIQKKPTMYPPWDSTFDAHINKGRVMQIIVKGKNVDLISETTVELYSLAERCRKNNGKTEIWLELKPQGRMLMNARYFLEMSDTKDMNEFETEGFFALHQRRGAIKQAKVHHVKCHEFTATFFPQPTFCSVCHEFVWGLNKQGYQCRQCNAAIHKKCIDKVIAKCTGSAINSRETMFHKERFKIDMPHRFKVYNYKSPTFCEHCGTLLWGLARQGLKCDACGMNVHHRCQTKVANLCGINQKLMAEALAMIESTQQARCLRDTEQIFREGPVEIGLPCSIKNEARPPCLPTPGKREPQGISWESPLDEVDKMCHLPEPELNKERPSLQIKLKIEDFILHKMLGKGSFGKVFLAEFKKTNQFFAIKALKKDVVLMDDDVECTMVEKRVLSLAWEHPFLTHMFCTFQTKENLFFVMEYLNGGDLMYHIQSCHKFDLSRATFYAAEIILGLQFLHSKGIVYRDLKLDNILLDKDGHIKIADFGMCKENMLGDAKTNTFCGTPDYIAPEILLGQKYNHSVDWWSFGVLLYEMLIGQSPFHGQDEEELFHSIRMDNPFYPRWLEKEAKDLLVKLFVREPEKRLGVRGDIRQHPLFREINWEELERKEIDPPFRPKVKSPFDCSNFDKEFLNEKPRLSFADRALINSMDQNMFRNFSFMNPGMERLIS

B1: antennapedia-PKC theta peptide (peptide)
peptide: RQIKIWFQNRRMKWKKMDQNMFRNFSFNMP
proliferation (3H-thymidine incorporation) of Th1 and Th2 cells stimulated with CD3 and CD28, relative to no inhibitor: 16 % of control levels
